Measured values from publication PMC9482650, “Quantitative fragmentomics allow affinity mapping of interactomes” (Nature Communications, 2022).

B1: TBC1D10A, Q9BXI6 (peptide)
chain: TSQESEDTYL
B2: PLEKHA2, Q9HB19 (peptide)
chain: DDENIRTSDV

Target: PTPN3, P26045
Experiment: holdup assay
Set-up: key: below the threshold = too weak to quantify, mostly under pKd 3.1 to 4
Conditions: plain residues with an end cap or a label only (N-terminal biotin on a linker: ado-ado)

Sequence of PTPN3, P26045 (P26045 505-587): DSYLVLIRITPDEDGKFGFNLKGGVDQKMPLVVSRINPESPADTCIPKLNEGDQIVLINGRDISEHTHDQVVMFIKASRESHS

Binder	pKd
B1	4.88
B2	4.6

Target: T1, RAPGEF6, Q8TEU7
T1 sequence (Q8TEU7 525-625, limits assumed, looked up): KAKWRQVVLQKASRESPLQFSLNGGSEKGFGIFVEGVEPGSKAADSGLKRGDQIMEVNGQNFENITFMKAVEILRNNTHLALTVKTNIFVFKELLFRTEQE
Experiment: holdup assay
Set-up: key: below the threshold = too weak to quantify, mostly under pKd 3.1 to 4
Conditions: plain residues with an end cap or a label only (N-terminal biotin on a linker: ado-ado)

Binder	pKd
B1	below the threshold
B2	below the threshold

Target: T2, CARD11, Q9BXL7
T2 sequence (Q9BXL7 662-765, limits assumed, looked up): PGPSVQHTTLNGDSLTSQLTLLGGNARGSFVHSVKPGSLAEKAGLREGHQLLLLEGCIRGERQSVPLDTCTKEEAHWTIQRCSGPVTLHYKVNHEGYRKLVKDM
Experiment: holdup assay
Set-up: key: below the threshold = too weak to quantify, mostly under pKd 3.1 to 4
Conditions: plain residues with an end cap or a label only (N-terminal biotin on a linker: ado-ado)

Binder	pKd
B1	below the threshold
B2	below the threshold

Target: MAGI2_6, Q86UL8
Experiment: holdup assay
Set-up: key: below the threshold = too weak to quantify, mostly under pKd 3.1 to 4
Conditions: plain residues with an end cap or a label only (N-terminal biotin on a linker: ado-ado)

Sequence of MAGI2_6, Q86UL8 (Q86UL8 1141-1229): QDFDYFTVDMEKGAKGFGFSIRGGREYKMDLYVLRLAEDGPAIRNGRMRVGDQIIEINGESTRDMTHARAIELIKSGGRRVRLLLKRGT

Binder	pKd
B1	3.98
B2	5.21

Target: NHERF4_2, Q86UT5
Experiment: holdup assay
Set-up: key: below the threshold = too weak to quantify, mostly under pKd 3.1 to 4
Conditions: plain residues with an end cap or a label only (N-terminal biotin on a linker: ado-ado)

Sequence of NHERF4_2, Q86UT5 (Q86UT5 220-308): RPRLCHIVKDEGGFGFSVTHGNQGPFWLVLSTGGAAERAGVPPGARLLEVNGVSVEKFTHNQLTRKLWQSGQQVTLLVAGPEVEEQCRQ

Binder	pKd
B1	below the threshold
B2	below the threshold

Target: T3, APBA2_2, Q99767
T3 sequence (Q99767 654-744, limits assumed, looked up): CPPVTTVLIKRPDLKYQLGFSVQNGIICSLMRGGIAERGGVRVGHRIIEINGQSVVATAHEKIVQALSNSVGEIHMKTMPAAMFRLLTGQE
Experiment: holdup assay
Set-up: key: below the threshold = too weak to quantify, mostly under pKd 3.1 to 4
Conditions: plain residues with an end cap or a label only (N-terminal biotin on a linker: ado-ado)

Binder	pKd
B1	below the threshold
B2	below the threshold

Target: T4, SNTB1, Q13884
T4 sequence (Q13884 107-205, limits assumed, looked up): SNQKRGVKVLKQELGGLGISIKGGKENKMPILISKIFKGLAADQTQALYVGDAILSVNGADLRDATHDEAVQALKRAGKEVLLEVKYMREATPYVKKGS
Experiment: holdup assay
Set-up: key: below the threshold = too weak to quantify, mostly under pKd 3.1 to 4
Conditions: plain residues with an end cap or a label only (N-terminal biotin on a linker: ado-ado)

Binder	pKd
B1	3.79
B2	5.37

Target: GIPC2, Q8TF65
Experiment: holdup assay
Set-up: key: below the threshold = too weak to quantify, mostly under pKd 3.1 to 4
Conditions: plain residues with an end cap or a label only (N-terminal biotin on a linker: ado-ado)

Sequence of GIPC2, Q8TF65 (Q8TF65 112-203): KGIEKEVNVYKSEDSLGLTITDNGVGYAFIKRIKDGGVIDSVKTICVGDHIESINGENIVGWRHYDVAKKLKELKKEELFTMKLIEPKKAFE

Binder	pKd
B1	below the threshold
B2	3.84

Target: T5, SNTG1, Q9NSN8
T5 sequence (Q9NSN8 52-150, limits assumed, looked up): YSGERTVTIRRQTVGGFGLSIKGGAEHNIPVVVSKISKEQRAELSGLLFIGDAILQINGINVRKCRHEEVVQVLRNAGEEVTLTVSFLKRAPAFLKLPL
Experiment: holdup assay
Set-up: key: below the threshold = too weak to quantify, mostly under pKd 3.1 to 4
Conditions: plain residues with an end cap or a label only (N-terminal biotin on a linker: ado-ado)

Binder	pKd
B1	below the threshold
B2	4.88

Target: T6, DFNB31_1, Q9P202
T6 sequence (Q9P202 135-233, limits assumed, looked up): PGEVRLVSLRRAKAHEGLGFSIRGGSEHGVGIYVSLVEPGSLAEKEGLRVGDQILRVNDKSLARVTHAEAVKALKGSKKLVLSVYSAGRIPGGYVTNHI
Experiment: holdup assay
Set-up: key: below the threshold = too weak to quantify, mostly under pKd 3.1 to 4
Conditions: plain residues with an end cap or a label only (N-terminal biotin on a linker: ado-ado)

Binder	pKd
B1	3.62
B2	below the threshold

Target: PICK1, Q9NRD5
Experiment: holdup assay
Set-up: key: below the threshold = too weak to quantify, mostly under pKd 3.1 to 4
Conditions: plain residues with an end cap or a label only (N-terminal biotin on a linker: ado-ado)

Sequence of PICK1, Q9NRD5 (Q9NRD5 17-115): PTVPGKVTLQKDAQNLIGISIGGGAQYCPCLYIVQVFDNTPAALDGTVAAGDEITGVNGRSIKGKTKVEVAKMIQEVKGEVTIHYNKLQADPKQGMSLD

Binder	pKd
B1	4.11
B2	below the threshold

Target: SNX27, Q96L92
Experiment: holdup assay
Set-up: key: below the threshold = too weak to quantify, mostly under pKd 3.1 to 4
Conditions: plain residues with an end cap or a label only (N-terminal biotin on a linker: ado-ado)

Binder	pKd
B1	5.27
B2	4.84

Target: FRMPD4, Q14CM0
Experiment: holdup assay
Set-up: key: below the threshold = too weak to quantify, mostly under pKd 3.1 to 4
Conditions: plain residues with an end cap or a label only (N-terminal biotin on a linker: ado-ado)

Sequence of FRMPD4, Q14CM0 (Q14CM0 67-160): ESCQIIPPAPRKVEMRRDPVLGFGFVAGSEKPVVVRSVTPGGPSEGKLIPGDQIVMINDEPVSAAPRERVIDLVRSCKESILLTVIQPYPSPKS

Binder	pKd
B1	5.3
B2	below the threshold

Target: T7, HTRA3, P83110
T7 sequence (P83110 354-453, limits assumed, looked up): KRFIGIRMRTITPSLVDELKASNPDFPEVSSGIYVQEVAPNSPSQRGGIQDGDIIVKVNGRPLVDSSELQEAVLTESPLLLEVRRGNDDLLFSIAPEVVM
Experiment: holdup assay
Set-up: key: below the threshold = too weak to quantify, mostly under pKd 3.1 to 4
Conditions: plain residues with an end cap or a label only (N-terminal biotin on a linker: ado-ado)

Binder	pKd
B1	below the threshold
B2	below the threshold

Target: Inadl_4, Q8NI35
Experiment: holdup assay
Set-up: key: below the threshold = too weak to quantify, mostly under pKd 3.1 to 4
Conditions: plain residues with an end cap or a label only (N-terminal biotin on a linker: ado-ado)

Sequence of Inadl_4, Q8NI35 (Q8NI35 547-651): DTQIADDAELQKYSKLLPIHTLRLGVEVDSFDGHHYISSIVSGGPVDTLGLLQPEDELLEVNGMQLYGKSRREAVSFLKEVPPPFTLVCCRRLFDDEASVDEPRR

Binder	pKd
B1	below the threshold
B2	below the threshold

Target: T8, TJP3_3, O95049
T8 sequence (O95049 375-456, limits assumed, looked up): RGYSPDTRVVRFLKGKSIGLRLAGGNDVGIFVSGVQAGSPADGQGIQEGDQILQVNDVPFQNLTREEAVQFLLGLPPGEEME
Experiment: holdup assay
Set-up: key: below the threshold = too weak to quantify, mostly under pKd 3.1 to 4
Conditions: plain residues with an end cap or a label only (N-terminal biotin on a linker: ado-ado)

Binder	pKd
B1	below the threshold
B2	below the threshold

Target: IL16_3, Q14005
Experiment: holdup assay
Set-up: key: below the threshold = too weak to quantify, mostly under pKd 3.1 to 4
Conditions: plain residues with an end cap or a label only (N-terminal biotin on a linker: ado-ado)

Sequence of IL16_3, Q14005 (Q14005 1107-1207): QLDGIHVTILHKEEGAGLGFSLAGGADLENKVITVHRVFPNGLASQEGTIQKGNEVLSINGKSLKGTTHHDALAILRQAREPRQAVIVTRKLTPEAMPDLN

Binder	pKd
B1	below the threshold
B2	below the threshold

Target: T9, LNX2_2, Q8N448
T9 sequence (Q8N448 334-432, limits assumed, looked up): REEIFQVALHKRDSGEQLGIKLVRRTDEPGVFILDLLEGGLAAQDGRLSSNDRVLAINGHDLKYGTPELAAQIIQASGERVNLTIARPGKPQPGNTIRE
Experiment: holdup assay
Set-up: key: below the threshold = too weak to quantify, mostly under pKd 3.1 to 4
Conditions: plain residues with an end cap or a label only (N-terminal biotin on a linker: ado-ado)

Binder	pKd
B1	below the threshold
B2	below the threshold

Target: Inadl_10, Q8NI35
Experiment: holdup assay
Set-up: key: below the threshold = too weak to quantify, mostly under pKd 3.1 to 4
Conditions: plain residues with an end cap or a label only (N-terminal biotin on a linker: ado-ado)

Sequence of Inadl_10, Q8NI35 (Q8NI35 1673-1763): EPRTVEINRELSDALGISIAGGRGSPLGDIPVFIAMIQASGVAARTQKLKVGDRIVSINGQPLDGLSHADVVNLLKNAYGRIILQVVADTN

Binder	pKd
B1	below the threshold
B2	below the threshold

Target: T10, DFNB31_3, Q9P202
T10 sequence (Q9P202 811-907, limits assumed, looked up): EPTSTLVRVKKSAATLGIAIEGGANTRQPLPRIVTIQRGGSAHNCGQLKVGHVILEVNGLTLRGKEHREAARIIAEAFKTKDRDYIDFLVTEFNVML
Experiment: holdup assay
Set-up: key: below the threshold = too weak to quantify, mostly under pKd 3.1 to 4
Conditions: plain residues with an end cap or a label only (N-terminal biotin on a linker: ado-ado)

Binder	pKd
B1	4
B2	below the threshold

Target: T11, DFNB31_2, Q9P202
T11 sequence (Q9P202 274-371, limits assumed, looked up): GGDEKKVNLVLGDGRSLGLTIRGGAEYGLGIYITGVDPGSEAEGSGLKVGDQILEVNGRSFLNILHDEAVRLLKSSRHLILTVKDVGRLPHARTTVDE
Experiment: holdup assay
Set-up: key: below the threshold = too weak to quantify, mostly under pKd 3.1 to 4
Conditions: plain residues with an end cap or a label only (N-terminal biotin on a linker: ado-ado)

Binder	pKd
B1	below the threshold
B2	below the threshold

Target: SCRIB_1, Q14160
Experiment: holdup assay
Set-up: key: below the threshold = too weak to quantify, mostly under pKd 3.1 to 4
Conditions: plain residues with an end cap or a label only (N-terminal biotin on a linker: ado-ado)

Sequence of SCRIB_1, Q14160 (Q14160 718-814): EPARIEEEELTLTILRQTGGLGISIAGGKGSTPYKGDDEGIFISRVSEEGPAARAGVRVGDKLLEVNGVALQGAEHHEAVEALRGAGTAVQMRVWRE

Binder	pKd
B1	3.99
B2	3.75

Target: T12, MPDZ_12, O75970
T12 sequence (O75970 1857-1958, limits assumed, looked up): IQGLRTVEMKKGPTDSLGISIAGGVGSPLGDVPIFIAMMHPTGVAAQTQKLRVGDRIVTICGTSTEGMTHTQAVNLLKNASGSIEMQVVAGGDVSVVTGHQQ
Experiment: holdup assay
Set-up: key: below the threshold = too weak to quantify, mostly under pKd 3.1 to 4
Conditions: plain residues with an end cap or a label only (N-terminal biotin on a linker: ado-ado)

Binder	pKd
B1	below the threshold
B2	below the threshold

Target: NOS1, P29475
Experiment: holdup assay
Set-up: key: below the threshold = too weak to quantify, mostly under pKd 3.1 to 4
Conditions: plain residues with an end cap or a label only (N-terminal biotin on a linker: ado-ado)

Sequence of NOS1, P29475 (P29475 9-101): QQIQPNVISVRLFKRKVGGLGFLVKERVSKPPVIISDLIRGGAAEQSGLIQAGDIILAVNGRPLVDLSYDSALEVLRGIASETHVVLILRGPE

Binder	pKd
B1	below the threshold
B2	below the threshold

Target: T13, ARHGAP21, Q5T5U3
T13 sequence (Q5T5U3 45-169, limits assumed, looked up): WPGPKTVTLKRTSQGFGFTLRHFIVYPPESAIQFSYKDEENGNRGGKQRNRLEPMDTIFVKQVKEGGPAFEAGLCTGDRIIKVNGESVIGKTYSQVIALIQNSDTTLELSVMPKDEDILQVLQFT
Experiment: holdup assay
Set-up: key: below the threshold = too weak to quantify, mostly under pKd 3.1 to 4
Conditions: plain residues with an end cap or a label only (N-terminal biotin on a linker: ado-ado)

Binder	pKd
B1	4.45
B2	4.37
